# According to US20240352438A1, “MEANS AND METHODS FOR DETOXIFYING OCHRATOXIN A” (DSM Austria GmbH, priority 2021, published 2024):
# Where a chain is given by its changes, count along the chain named.
# B1: 210 (protein)
# chain: MTTRTRILTAFLSLLAANACAADAAPAAPHTVVLRAARMFDGASGKLVDDPQLTIVGNKIVRIAQGDKAEVPAGAEVVDLGDATLLPGFIDAHVHLSGQSSDNWYGDFFDNMMRFPAEQALYGAYYARITLEAGFTSVRDVGSTDWVALGLRNAIDAGKVPGPRMLVSNYAVGSTGGHADQDPIPPHKLPLAGPLQGVCNGPEECRAAVRYQIKYGANVIKFMPSGGVLSLSDPVDAPELSQDEMNAVIGESHAWGRKVAAHAHGDKAAKMAVAAGVDSIEHGSFIEDDTLRAMKAKNVYLVPTISAIAHVEEKIGTFPPVIAEKGRAAAAHLRQTFRHAVQIGVPIALGTDAGVGAHGSNAREFRYMVENGLTPAQALLAGTANAARLLGTFDRVGTLEAGKLADVVAVPGNPIADITVTERPLFVMKDGVVVRRDAVR
# modifications: exemplary polypeptide
# B2: 211 (protein)
# chain: B1 chain with D50N
# modifications: exemplary polypeptide
# B3: 213 (protein)
# chain: B1 chain with D50H, S100D
# modifications: exemplary polypeptide
# B4: 214 (protein)
# chain: B1 chain with D50H, N103D
# modifications: exemplary polypeptide
# B5: 216 (protein)
# chain: B1 chain with D50H, N103Q
# modifications: exemplary polypeptide
# B6: 217 (protein)
# chain: B1 chain with D50H, T130E
# modifications: exemplary polypeptide
# B7: 218 (protein)
# chain: B1 chain with D50H, H187D
# modifications: exemplary polypeptide
# B8: 219 (protein)
# chain: B1 chain with D50H, H187E
# modifications: exemplary polypeptide
# B9: 220 (protein)
# chain: B1 chain with D50H, H187G
# modifications: exemplary polypeptide
# B10: 224 (protein)
# chain: B1 chain with D50H, K188R
# modifications: exemplary polypeptide
# B11: 225 (protein)
# chain: B1 chain with D50H, G226A
# modifications: exemplary polypeptide
# B12: 227 (protein)
# chain: B1 chain with D50H, G226S
# modifications: exemplary polypeptide
# B13: 230 (protein)
# chain: B1 chain with D50H, S230T
# modifications: exemplary polypeptide
# B14: 231 (protein)
# chain: B1 chain with D50H, D233N
# modifications: exemplary polypeptide
# B15: 234 (protein)
# chain: B1 chain with D50H, H253A
# modifications: exemplary polypeptide
# B16: 235 (protein)
# chain: B1 chain with D50H, H253N
# modifications: exemplary polypeptide
# B17: 237 (protein)
# chain: B1 chain with D50H, S284H
# modifications: exemplary polypeptide
# B18: 238 (protein)
# chain: B1 chain with D50H, S284T
# modifications: exemplary polypeptide
# B19: 239 (protein)
# chain: B1 chain with D50H, H310D
# modifications: exemplary polypeptide
# B20: 240 (protein)
# chain: B1 chain with D50H, H310E
# modifications: exemplary polypeptide
# B21: 241 (protein)
# chain: B1 chain with D50H, H332E
# modifications: exemplary polypeptide
# B22: 242 (protein)
# chain: B1 chain with D50H, H332R
# modifications: exemplary polypeptide
# B23: 243 (protein)
# chain: B1 chain with D50H, H332S
# modifications: exemplary polypeptide
# B24: 244 (protein)
# chain: B1 chain with D50H, H339E
# modifications: exemplary polypeptide
# B25: 245 (protein)
# chain: B1 chain with D50H, H339K
# modifications: exemplary polypeptide
# Assay: Enzymatic activity comparison: activity remaining after 65° C. for 10 min at pH 6.0, relative to SEQ ID NO: 1
# Format: physicochemical
# Conditions: not given
# Description: To compare the temperature behavior and thermostability of selected enzymes to one another, enzyme was incubated at 65° C. for 10 min at pH 6.0. The enzymatic activity remaining after incubation was compared to the remaining activity of the enzyme of SEQ ID NO: 1 after incubation, the latter being set to 100%, see Table 16.
row,Molecule,"Enzymatic activity remaining after incubation, compared to SEQ ID NO: 1 (set to 100%) [%]"
1,B1,39
2,B2,34
3,B3,25
4,B4,59
5,B5,14
6,B6,36
7,B7,28
8,B8,38
9,B9,22
10,B10,40
11,B11,84
12,B12,24
13,B13,32
14,B14,75
15,B15,50
16,B16,56
17,B17,14
18,B18,24
19,B19,30
20,B20,44
21,B21,73
22,B22,11
23,B23,41
24,B24,33
25,B25,37

# Assay: OTA detoxification activity assay (specific activity, fluorescence reduction ex/em 390/450 nm)
# Format: biochemical
# Conditions: pH 6.0; SEQ ID NO: 1 = 100%
# Procedure, shortened: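 Recombinant enzyme preparation with 200 ng/mL OTA in 100 mM sodium phosphate, at pH 6.0 and pH 7.5, 37° C. Degradation followed as the fall in fluorescence at ex/em 390/450 nm. Specific activity taken from the initial linear slope; one unit degrades 1 μmol OTA per min at a starting OTA of […].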
row,Molecule,"Specific OTA detoxification activities in % compared to the enzyme of SEQ ID NO: 1, pH 6.0 [%]"
1,B1,93
2,B2,121
3,B3,76
4,B4,123
5,B5,147
6,B6,153
7,B7,104
8,B8,87
9,B9,85
10,B10,169
11,B11,24
12,B12,47
13,B13,141
14,B14,20
15,B15,23
16,B16,56
17,B17,49
18,B18,151
19,B19,73
20,B20,86
21,B21,18
22,B22,41
23,B23,37
24,B24,127
25,B25,62

# Same assay, conditions: pH 7.5; SEQ ID NO: 1 = 100%
row,Molecule,"Specific OTA detoxification activities in % compared to the enzyme of SEQ ID NO: 1, pH 7.5 [%]"
1,B1,102
2,B2,111
3,B3,39
4,B4,108
5,B5,115
6,B6,139
7,B7,101
8,B8,88
9,B9,83
10,B10,132
11,B11,27
12,B12,36
13,B13,127
14,B14,22
15,B15,13
16,B16,38
17,B17,26
18,B18,97
19,B19,76
20,B20,101
21,B21,55
22,B22,54
23,B23,77
24,B24,93
25,B25,59
